Experiment: soluble fraction after stress (log2 fold change); higher = more stays soluble; pooled small domains, quantitative proteomics
Conditions: stress: 50 degC
Summary of the method: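 After stress at 50°C, the amount of each protein still soluble was measured. This was done on pooled custom libraries of small protein domains, using high-throughput quantitative proteomics. The figure given is a base-two log fold change and stands for aggregation propensity, with higher values meaning more protein stays in solution.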

| Sequence | soluble fraction (log2) |
| --- | --- |
| HMNAEWMFDARKIPGLVMNYLRRIAVRAIEEKHYSPELVADLFGIDRTSIYDWLRKYRQQGEEALDTRKA | 0.012 |
| HMNAFEIYPNPASNLIRIDAEFTVAKIFSQTGNLIQTSTTKEIDVYNLANGIYFVKLDDSPSMVKFVIN | -0.705 |
| HMNALTEAESKLLERMNKAGIHAEITTKKAAGILQRSENGARTVLNSLVKKGYLTVETNKAPYIYHLH | -0.11 |
| HMNAMFEKVLAAVMGFIGVSAFAKNADGKSEMTSDQEKRLTDKWGSKFVEEFKNDLLEYEKNGNAAEDAV | -0.264 |
| HMNAPKKPLSAYFLFSQEERLKVKAENPDYSITEVAKELGKRWATLNPDIKTVYEQRYQDARRIYETEMNT | -0.303 |
| HMNAQLTTIPDLDGMNMRAATAMLSSLGLEVKRIGSGTVFAQFPKAGAAMRPGSMVTIRGKAKSL | -0.355 |
| HMNATLSSSYPTSVVTDGEIYKLTFGLNGKYNGQEQITVKPHGDSNIYDSGGLRAYQNTQSNNVVTLN | 0.1 |
| HMNATQLSNTQKQIRTQLLERLSNNPLTVKQLADRMFVPIDTILKEITALIQEQKIIEDKGGKLQIN | 0.0217 |
| HMNAVDLLSPQEQRIFELIGEGMSNRQIADVMYLAEKTVKNYVSNVLMKLGMERRTEAAALAARLDERQK | -0.114 |
| HMNAVITTQKAKQIALAHAGLSEADVNYVKAELENDDGVQVYDIEFYSKNIEYDYDINAVTGEIMSFDHDI | -0.47 |
| HMNAVYPNPFVSEIYIGENNRSVEIYNLNGGLVYGMSQPSSRIDVSGLAAGSYILIKKDSSGHISSHKIMK | 0.0698 |
| HMNDAARQTTDILQHVRSSGSISFRDLWRLFMPFMAYRDFDAAVKSLVAAGHIATTENERKELHLIAF | -0.542 |
| HMNDEFYAVVRESYAGYALVKPLDEDVGYDILSVSVKNLKVGDIIRLKVKNIKEIYPPEAEVLEVEVLQ | 0.00135 |
| HMNDEQFAIAKNDLLLSLYDGKEVNNSAAEYIIAWESLEKSPSDYISSQLKNTAESIIKISFD | 0.0499 |
| HMNDFVTVPDLQGIFYSEAIKKIDKMGLKEGSIQFVNQDKFLPNTVLNQNPKEGTKVSQDSPINLIIS | 0.0352 |
| HMNDILETISNQIRDLRVSKKITQQELAERTNLSVPYISQIENGHRNISLETFIKIVDALDIPLSDFFLP | -1.03 |
| HMNDITVNVEDSKLIVTSNNPEKLPLYIMDIQGHILDKSEITAGTYSFPISDRGTYIVRIGENVYKVI | 0.0386 |
| HMNDLKVGELAKRGNVTAETVRHYTREGLLSPTRHPDNGYQLFSATDLERLHFIQRARKLGFSVAEIRDIL | -0.619 |
| HMNDLVTWDRYKIELGDTLSEIAQKLVTRVDILKTVNQIQGTRIIAGNSLMVPRTTDTNVLTYL | -0.174 |
| HMNDPIGDMLTRIRNAQMRGKSTVSTPASKLRAWVLEVLASEGYIRGFERATTDNGQGELVISLD | -0.665 |
| HMNDREAAYEDLPDELVRVGQKVFIKSLETEGVIVQPPNKKGEVRVRSGNISTNVKRSDLGLPIEKP | 0.129 |
| HMNDRRQDVFELLKSSERPVSAADLAHKFGVTRQVIVADIALLRASDIDIVSTNRGYILKANL | -1.49 |
| HMNDYNLTDREKEVLTFLFQGLEYKEIGMKMSVSPNTIRNHISNIYKKLHVTSKTQAIRVFLNN | -2.21 |
| HMNEAMIMIDLKGKSRDEAVKELDELNLKYRFTGNGIVKDQKPKAGEEINSDTVVEVELSEIK | 0.114 |
| HMNEDYFTIAGYASLRGVNIDTSKANMLGRKATKLSREYGYDIGKVTDTRFGKVNSYHLDILKSIFEF | -0.477 |

| Sequence | soluble fraction (log2) |
| --- | --- |
| HMNEFSYLSELGSEKGDLIKGLQLVQSREGYVSDDAIRAISKHFSIAEAEVEGVLTFYAQFK | -0.572 |
| HMNEIESFSNTKNPFSLTFKTSKDSSYKVEASSNLKKWTTLSQIKGTGNPITFTESRRILFRKQYYRVTLS | -0.197 |
| HMNEISFYPNPAKESLTVKGLSEITSYSISDINGKLIQYGTTFDRINLEKLTKGFYFLTIGNTISKKLIV | -0.39 |
| HMNEISLKEITIEEDHPWRDKKIKELDLKEHILVAMIRRKDQDIIPNGETKIYKDDILVIYD | 0.144 |
| HMNEKFNVYPIPVYNNLNITGLSKPVTYLISSIDGKTIKNGVFQESIDVSDLKSGLYFLQVETKDPVKFIK | -0.658 |
| HMNEKLNEYLNQVKAYLNTSDNKEDIIKELEAVVLEKAEKKYGQITDESISKILSEFGSPAEVAKEYS | 0.129 |
| HMNEKLRNYIDTLFEHAPTTVRAVELKEEMFQNLTDKYNDLIAQGKSEEAAFNIAVASIGDVDSLIAGLS | 0.219 |
| HMNELGSLIKRKREELGLSQEELARILGYKHKSSINKIELGLADVPRTKVPAFAKALGMTPVEFS | 0.0771 |
| HMNELPSVIIMKNGRTRPYELQEISKDEEWLNQTIREHGIEPKDIFIAEFWDGRTAFILNDGRIVK | -0.555 |
| HMNERIKSLRKALGLTQQEFADKLGISRGNIGAYEVGKNAPSDAVISLIVRIFNTNENWLRTGEGEM | -0.145 |
| HMNETSRTRALNILGLKATATQEDIKKAYRSLAKEYHPDKLVGVSEGVKKISEEKFREINEAYEYLI | 0.384 |
| HMNEVIIKNWSNAVGRNIKIKTKRGRPIFGRLLAINDQQLTIASKYMRGNATITVAREDVVSMSVS | -0.516 |
| HMNEVRINTAHIEHKYLGEVKVLDIQEMRNARGRDADPLAFLAIRFWSPRGVLVRVKDSRDATPYWLIS | 0.3 |
| HMNEYHRNISDEEFVRDIKETAIKLKKETLTGVEYSQNGKYHASTIIHRFGSWKKALELAELNTK | -0.056 |
| HMNFNYPVIVKNSRINVSGVLSAAKLYTINGQLLQSYKGSGEFTSKTLTKGIYILQVDNARTKVLV | -1.29 |
| HMNFSKEYILVHSYKEIDILDALIVKYEATLVNREFDLFINSYIKINEDYAKLFRDEIISKTSGSMSIKEL | -0.825 |
| HMNFTKHPENPNFVVYRFTDPERANSFRAELIANNISFEEDTEKKKQLIYTLFAIHTKYYNQSMQINIK | -0.463 |
| HMNFTVTDKNAVLYSNDNTKVYESPDINSKLVTTIAKDLPVNVTGITSNGWFRISLEGTYYVPGNGLEQR | 0.141 |
| HMNGADPYEQLGVTRDASDDELKAAHRKLSRENHPDTLMAKGMPPEFIEQANDKMARINAAWDQIRKERGI | 0.26 |
| HMNGAITLRVRPSDEGKRLDVFVVSQLTGYTRSFVAGLIGDRHFLVNGQPKKPGYRIKSSDTISGVIPAPA | -1.21 |
| HMNGARALAGAIAEAIRKQVYRVNERLPAERELASHYDVSRGTLRSALALLEQEGLVTRKVGSGTFVMPP | -0.438 |
| HMNGNLRAQVLELMGRADYEPLNKSELSRKLDLQGSDRSSLRILMDELERDHSVVRLKKGRFALKVV | -0.853 |
| HMNGQFIELKNTTGTIIEARVLSFQNGKVKLQRNDGLIFVASISIFDSESIEVIKQKVAEISESKKS | -0.224 |
| HMNGQITPSRAKEIALGHAGVSEGSANFKKIKLDNKNGRPAYEIEFIANNSRYEFEINASNGSIIKFNK | 0.345 |
| HMNGYGALVRLGRSRGWVTVEEINDHLPESAVRTAENVQEITEALGRLSIKVFETRPDEDDLLIT | -0.0632 |

| Sequence | soluble fraction (log2) |
| --- | --- |
| HMNHGDATTETQAEIMAILSDMKPHPITELNTIKRPYEQIDTALTYLINEEKIYRMDGMIFIG | -0.694 |
| HMNHYTEEYILKRMKDFFTTHAYITRRDIESLFGFRRSYATKWLKHFRESGVLKQSGPVNSAVYLL | -2.83 |
| HMNIAESIRKYRKASGLTQEEMAKRLGVTTPAVSKWENGITNPDIALLAPIARLFHISVDTLLSYR | -0.403 |
| HMNIDKLVGSTGTVVRSVTPDTAGLVRVNDEDWRASAEEILYERDAIVVEGIEGVTLIVSKLS | -0.43 |
| HMNIETHIVPKLLAPIRLQEYGVGIFNNIPTKSALKKALKKQLITVDKTVATTATFIKGGETIELAYQ | -1.47 |
| HMNIGEKIKTLRENNNISIEELAEKINDSIENILKYENNELEPTLDKKLALSIALGVTLSDLS | -0.114 |
| HMNIGELINKKRTELGLTLEEVGNAVGVSKSTVKKWEDGFISNMRRDKISKLAKVLEMNPVSLITGE | 0.0389 |
| HMNIGSKLRYLIEEANITQRQLADALHISPSALNGYINQGKEPDYATLVRIADYFHTSTDYLLGHSNIR | -0.00171 |
| HMNIIATHTVPAIEQKIRLQEYAISIFPQINSRSALKKAIAKKLVLLDGERASTADWIQPGQKIELLEDK | -0.337 |
| HMNILAPFWERFGLSAFAAGNYDRAEGYFRKLEQKDPNSMSVLRNLGLILMAKGDAEGAEAYLLREEKL | -0.67 |
| HMNILKKDKRLWDENNLNKPLLFELLENYDKEIFELLLTDKDIKAKFFVQAGESYVFKYDDFRFAIEQN | -0.702 |
| HMNIMAQDWISSPMGPISFKSNQHGLVKIGWGEVPRENTEQPNLEFTRKWLVDYFEGKASPLPYF | -0.329 |
| HMNIQGIFGRNLKQKRLEKGMTQEQLAEKAGVSTDTVKRYESGKYDGIRLDMAWYMANALDTPLQALLPP | 0.367 |
| HMNISALKGKIGEVYLKIPAHNAGKGKVLISLKGTHHELYAITRSGEDISSGEFVKVIEIEDEILVVEK | -0.58 |
| HMNITFAENIKQFRKAKSMSMEELGKRLGKAKSSISAWENGKRTPKINELKSISEALGVTISQLLGF | -1.13 |
| HMNIYIEFGRRLAFIRQNSKLSQSQIAQKLNIAQSTYAGYEKGVRKIPLEIIVQLSKILNISPTILILG | -3.91 |
| HMNKADFLRKLDRELSVLDQEERKEILSFYEERFYTGTNYENKTELDIINELENPEIIAKNVLEEYGV | -0.154 |
| HMNKDEFLRRLEDALSGEVPASVIRENLNYYADYLSQELGKGRTMDEIIEEIGEPNIVARTIINSAEAA | 0.0708 |
| HMNKDWQDEVALQRYTMITPLLSEDLDNAKRIAMREKIAQDNLTTARSLYRYEKAYRENGFQGLRPTD | -0.146 |
| HMNKEIEDYVATYSSMKAKEAAAIFDTMTSDLDLVAKILEAMSADDRAKILEQMNEENAARLTKMMD | 0.21 |
| HMNKEQIASNIAEARKRSGLNQSELARRLGIRPQSVQQWEKGTATPKLDRLTAIAQVLGVSLESLTG | -0.0259 |
| HMNKFADLAGNIIYNENGVEVFNFGKYKGQPVAEVFKKDIGYYGWIQNADFPRYTKKVFTAIQLKSK | -1.22 |
| HMNKIDVVEVDMSKPYEDMTVTELQNVILGKLASNGPVTDQMKKDVAENIYHDSLVNWAKSF | 0.505 |
| HMNKIENLSQTILNILRKDHSQAFNYKQIAAKLQLDDPSSRNQIVKKLKDLQGKGTIQEIERGKYILTP | 0.358 |
| HMNKITIDQAKEIALNHAKLTAEQVSFIRTESEFDDGIEKYNIEFYYNNQKYDYDINAVNGQIIQYDLEG | -0.0582 |

Source: the domain aggregation screens of Martell et al. (2025)
